Molecular target: human purified plasma‐derived fibronectin (human)
Assay: ELISA

binding as percent of normal VWF: 68%
Substance: recombinant VWF p.D2509E (from UniProt P04275 23-2813) (natural protein)

Reference: article PMC8178691
